Assays:
HLA-A*02:06 = experiment: IEDB peptide-MHC binding, purified MHC/competitive/fluorescence; filed as Kd, often an IC50 or EC50 that approximates it; ≥ and ≤ were set here for values at or beyond the usual limits of such assays; conditions: source organism: Salmonella enterica subsp. enterica serovar Typhimurium str. LT2
HLA-B*83:01 = experiment: as above; conditions: source organism: Salmonella enterica subsp. enterica serovar Typhimurium str. LT2
HLA-A*68:23 = experiment: as above; conditions: source organism: Salmonella enterica subsp. enterica serovar Typhimurium str. LT2
HLA-A*02:03 = experiment: as above; conditions: source organism: Salmonella enterica subsp. enterica serovar Typhimurium str. LT2
HLA-B*15:01 = experiment: as above; conditions: source organism: Salmonella enterica subsp. enterica serovar Typhimurium str. LT2
HLA-B*15:42 = experiment: as above; conditions: source organism: Salmonella enterica subsp. enterica serovar Typhimurium str. LT2
HLA-B*15:17 = experiment: as above; conditions: source organism: Salmonella enterica subsp. enterica serovar Typhimurium str. LT2
HLA-B*45:06 = experiment: as above; conditions: source organism: Salmonella enterica subsp. enterica serovar Typhimurium str. LT2
HLA-A*02:19 = experiment: IEDB peptide-MHC binding, purified MHC/direct/fluorescence; filed as Kd, often an IC50 or EC50 that approximates it; ≥ and ≤ were set here for values at or beyond the usual limits of such assays; conditions: source organism: Salmonella enterica subsp. enterica serovar Typhimurium str. LT2
HLA-A*31:01 = experiment: as above; conditions: source organism: Salmonella enterica
HLA-B*27:05 = experiment: as above; conditions: source organism: Salmonella enterica
HLA-A*03:01 = experiment: as above; conditions: source organism: Salmonella enterica
HLA-B*57:01 = experiment: as above; conditions: source organism: Salmonella enterica
HLA-B*08:01 = experiment: as above; conditions: source organism: Salmonella enterica subsp. enterica serovar Typhimurium str. LT2
HLA-A*26:02 = experiment: as above; conditions: source organism: Salmonella enterica subsp. enterica serovar Typhimurium str. LT2
HLA-A*02:10 = experiment: as above; conditions: source organism: Salmonella enterica subsp. enterica serovar Typhimurium str. LT2
HLA-A*23:01 = experiment: as above; conditions: source organism: Salmonella enterica subsp. enterica serovar Typhimurium str. LT2
HLA-A*24:03 = experiment: as above; conditions: source organism: Salmonella enterica subsp. enterica serovar Typhimurium str. LT2
HLA-A*02:01 = experiment: as above; conditions: source organism: Salmonella enterica
HLA-A*02:50 = experiment: as above; conditions: source organism: Salmonella enterica subsp. enterica serovar Typhimurium str. LT2
HLA-B*39:01 = experiment: as above; conditions: source organism: Salmonella enterica subsp. enterica serovar Typhimurium str. LT2
HLA-B*46:01 = experiment: as above; conditions: source organism: Salmonella enterica
HLA-B*48:01 = experiment: as above; conditions: source organism: Salmonella enterica
HLA-B*18:01 = experiment: as above; conditions: source organism: Salmonella enterica subsp. enterica serovar Typhimurium str. LT2
HLA-A*02:12 = experiment: as above; conditions: source organism: Salmonella enterica subsp. enterica serovar Typhimurium str. LT2

With FPASHMATY the Kd (HLA-A*02:06) was 1.29 µM, the Kd (HLA-B*83:01) was 0.22 µM and the Kd (HLA-A*68:23) was 0.006 µM. The Kd (HLA-A*02:03) was ≥ 20 µM, the Kd (HLA-B*15:01) was 0.334 µM and the Kd (HLA-B*15:42) was ≥ 5 µM. For the same sequence, the Kd (HLA-B*15:17) was ≥ 20 µM, the Kd (HLA-B*45:06) was ≥ 5 µM and the Kd (HLA-A*02:19) was ≥ 20 µM. For the same sequence, the Kd (HLA-A*31:01) was ≥ 20 µM, the Kd (HLA-B*27:05) was ≥ 20 µM and the Kd (HLA-A*03:01) was ≥ 20 µM. The Kd (HLA-B*57:01) was ≥ 20 µM, the Kd (HLA-B*08:01) was ≥ 20 µM and the Kd (HLA-A*26:02) was ≤ 0.001 µM. For the same sequence, the Kd (HLA-A*02:10) was ≥ 20 µM, the Kd (HLA-A*23:01) was ≥ 20 µM and the Kd (HLA-A*24:03) was ≥ 20 µM. For the same sequence, the Kd (HLA-A*02:01) was ≥ 20 µM, the Kd (HLA-A*02:50) was ≥ 20 µM and the Kd (HLA-B*39:01) was ≥ 20 µM. The Kd (HLA-B*46:01) was 9 µM, the Kd (HLA-B*48:01) was ≥ 20 µM and the Kd (HLA-B*18:01) was 0.007 µM. For the same sequence, the Kd (HLA-A*02:12) was ≥ 20 µM.
